Results: patent US20240287172A1 (SCIRHOM, published 2024)

Biological target: T1, hiR2-FL-F588H-T7 (human, UniProt Q6PJF5 1-856)
T1 sequence: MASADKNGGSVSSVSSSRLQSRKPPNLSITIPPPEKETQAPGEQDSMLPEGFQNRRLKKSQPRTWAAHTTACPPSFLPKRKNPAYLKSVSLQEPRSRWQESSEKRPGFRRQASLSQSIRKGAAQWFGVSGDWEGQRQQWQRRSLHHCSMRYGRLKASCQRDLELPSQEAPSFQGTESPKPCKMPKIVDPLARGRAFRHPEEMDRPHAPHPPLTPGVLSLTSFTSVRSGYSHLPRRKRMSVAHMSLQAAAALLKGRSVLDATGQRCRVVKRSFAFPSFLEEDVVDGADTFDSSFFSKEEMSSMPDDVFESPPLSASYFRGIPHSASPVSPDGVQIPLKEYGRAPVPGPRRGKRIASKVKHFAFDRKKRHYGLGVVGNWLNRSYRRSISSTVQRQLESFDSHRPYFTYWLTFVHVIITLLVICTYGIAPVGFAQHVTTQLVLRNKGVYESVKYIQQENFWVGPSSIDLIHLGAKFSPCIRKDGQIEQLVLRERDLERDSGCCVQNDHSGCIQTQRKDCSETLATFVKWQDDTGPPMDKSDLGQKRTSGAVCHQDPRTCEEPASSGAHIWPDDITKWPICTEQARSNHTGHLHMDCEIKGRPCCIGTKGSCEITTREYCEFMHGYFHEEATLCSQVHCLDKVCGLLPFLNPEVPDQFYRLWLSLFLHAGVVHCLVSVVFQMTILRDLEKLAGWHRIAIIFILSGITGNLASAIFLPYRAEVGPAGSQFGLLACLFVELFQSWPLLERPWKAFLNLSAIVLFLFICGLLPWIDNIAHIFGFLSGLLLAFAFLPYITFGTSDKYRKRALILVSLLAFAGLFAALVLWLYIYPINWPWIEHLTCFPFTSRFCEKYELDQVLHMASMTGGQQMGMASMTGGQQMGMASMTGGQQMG
Assay: FACS, MEF-DKO cells, 3 µg/ml
Method in brief: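 Binding read by flow cytometry after a PE goat anti-mouse IgG F(ab′)2 secondary (1:100, on ice, 1 h, dark). Before that, immortalized MEF-DKO lines carrying single-mutant hiR2-FL-T7 constructs were incubated 1 h on ice with 3 μg/ml antibody or FACS buffer alone.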

B1: antibody 3 (antibody, V domains shown)
VH: QVTLKESGPGILQPSQTLSLTCSFSGFSLTTFAMGIGWVRQPSGKGLEWLAHIWWDGEKYNNPVLKSRLTISKDTSKNQVFLRIANVDTPDTATYYCARISSIYYIIDNWGQGTSVTVSS
VL: DIVLTQSPATLSVTPGHSVSLSCRASQSISNNLHWYQKKSHESPRLLIKYVSQSISGIPSRFSGSGSGTDFTLSINSVETEDFGMYFCQQSYNWPLTFGAGTKLELK
notes: mouse IgG, kappa light chain; also called clone #3; purified antibody 3
loss of binding vs wild type: ≥ 30%
